Measured values taken from patent US20200087373A1 (UNIVERSITY OF COPENHAGEN, published 2020).
Ends that are not written are not given here. * marks the point of attachment. Stearoyl = CCCCCCCCCCCCCCCCCC(=O)*

T1: human GIP receptor (human, UniProt P48546 22-466)
T1 sequence (looked up): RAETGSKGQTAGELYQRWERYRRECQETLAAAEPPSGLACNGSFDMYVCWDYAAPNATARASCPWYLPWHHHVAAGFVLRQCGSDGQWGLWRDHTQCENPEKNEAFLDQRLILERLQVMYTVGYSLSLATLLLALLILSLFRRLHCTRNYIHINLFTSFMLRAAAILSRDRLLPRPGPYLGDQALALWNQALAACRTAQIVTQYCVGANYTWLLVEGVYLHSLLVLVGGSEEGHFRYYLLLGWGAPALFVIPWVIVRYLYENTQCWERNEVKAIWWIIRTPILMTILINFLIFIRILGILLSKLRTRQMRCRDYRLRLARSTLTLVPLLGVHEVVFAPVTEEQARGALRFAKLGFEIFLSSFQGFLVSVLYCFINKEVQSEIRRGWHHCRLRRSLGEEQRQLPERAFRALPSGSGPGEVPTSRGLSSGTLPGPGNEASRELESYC


What was measured:
[1] = target: human GIP receptor (human) (UniProt P48546); assay: 125I-hGIP competition binding, COS-7 cells expressing hGIPR
[2] = target: human GIP receptor (human) (UniProt P48546); assay: ratio of IC50 with 2% HSA to IC50 with 0.1% casein, 125I-hGIP competition binding on hGIPR COS-7 cells
[3] = target: human GIP receptor (human) (UniProt P48546); assay: 125I-hGIP competition binding on hGIPR COS-7 cells; fold in affinity, paired, reference taken as GIP(3-30)NH2
[4] = target: human GIP receptor (human) (UniProt P48546); assay: cell-based or functional assay
[5] = target: human GIP receptor (human) (UniProt P48546); assay: 125I-hGIP(1-42) competition binding, COS-7 cells expressing human GIPR, 0.1% casein (no HSA)
[6] = target: human GIP receptor (human) (UniProt P48546); assay: 125I-hGIP(1-42) competition binding, COS-7 cells expressing human GIPR, 2% HSA
[7] = target: human GIP receptor (human) (UniProt P48546); assay: 125I-hGIP(1-42) competition binding, COS-7 cells expressing human GIPR
human GIP receptor = target: T1, human GIP receptor; assay: cell-based or functional assay

Row | Molecule | log IC50 [1] [log M] | Fold change (IC50 2% HSA / IC50 0.1% casein) [2] [fold] | fold (paired) [3] [fold] | cAMP - antagonisme IC50 [4] [nM] | cAMP - antagonisme fold (paired) [4] [fold] | IC50 [5] [nM] | IC50 [6] [nM] | IC50 [7] [nM] | cAMP agonism, EC50 (log) (human GIP receptor) [log M] | cAMP agonism, Emax (human GIP receptor) [%] | cAMP agonism, nM (EC50) (human GIP receptor) [nM] | IC50 [1] [nM]
1 | AT129 [hGIP(5-30)NH2-C18/30] (peptide) | -3.9 |  |  |  |  |  |  |  |  |  |  | 
2 | AT114 [hGIP(3-30)NH2-C18/16] (peptide) |  | 7.7 | 6.7 | 29.2 | 2.3 | 115 | 881 | 102 |  |  |  | 
3 | AT162 (H18K; K30R, C18 at position 16, as printed in Table 3b) (peptide) |  | 5.6 | 2.6 | 26.3 | 0.5 | 59.8 | 336 | 59.8 |  |  |  | 
4 | AT162, second row of Table 3b (H18K; K30R, C16 at position 16) (peptide) |  | 3.3 | 9.2 | 213 | 4.1 | 213 | 705 | 213 |  |  |  | 
5 | EGTFISDYSIAMDK(Stearoyl)IRQQDFVNWLLAQR-NH2 (not fully specified) [AT162 [hGIP(3-30)NH2[H18R; K30R]-C18/16]] |  |  |  |  |  |  |  |  | -5.9 | 44 | 1370 | 85
